One assay has as its target T1, TTLL8 (Homo sapiens, UniProt A6PVC2).
T1 construct: residues 39-585; N-terminal GST tag cut with 3C protease; Sf9 baculovirus
T1 sequence (A6PVC2 39-585): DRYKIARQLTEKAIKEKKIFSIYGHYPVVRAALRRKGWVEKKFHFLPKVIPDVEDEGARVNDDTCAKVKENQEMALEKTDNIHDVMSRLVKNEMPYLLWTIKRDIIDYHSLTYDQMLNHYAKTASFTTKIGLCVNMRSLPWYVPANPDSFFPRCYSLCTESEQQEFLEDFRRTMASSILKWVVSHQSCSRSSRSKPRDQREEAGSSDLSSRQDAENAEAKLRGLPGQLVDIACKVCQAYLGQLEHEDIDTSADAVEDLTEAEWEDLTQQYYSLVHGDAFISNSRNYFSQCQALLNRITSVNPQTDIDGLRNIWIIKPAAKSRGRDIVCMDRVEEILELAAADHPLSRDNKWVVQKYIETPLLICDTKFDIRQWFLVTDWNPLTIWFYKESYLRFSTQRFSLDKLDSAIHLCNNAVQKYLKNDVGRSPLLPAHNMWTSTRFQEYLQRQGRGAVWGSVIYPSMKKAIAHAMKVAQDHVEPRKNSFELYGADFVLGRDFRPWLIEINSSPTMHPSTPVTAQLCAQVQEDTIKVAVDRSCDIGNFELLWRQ
The experiment in a line: LC-MS and MS/MS of glycine added to tubulin tails. In kind it is biochemical. Conditions: labelled compound (13C glycine); co-substrate unmodified human microtubules (taxol-stabilised); ATP-dependent; room temperature, 20 min.

The next assay deals with T2, TTLL10 (Xenopus tropicalis, UniProt A0A8J0T4S7).
T2 construct: residues 105-570; N-terminal GST tag cut with 3C protease; Sf9 baculovirus; untagged for mass spectrometry (C-terminal SNAP fusion only for microscopy)
T2 sequence (A0A8J0T4S7 105-570): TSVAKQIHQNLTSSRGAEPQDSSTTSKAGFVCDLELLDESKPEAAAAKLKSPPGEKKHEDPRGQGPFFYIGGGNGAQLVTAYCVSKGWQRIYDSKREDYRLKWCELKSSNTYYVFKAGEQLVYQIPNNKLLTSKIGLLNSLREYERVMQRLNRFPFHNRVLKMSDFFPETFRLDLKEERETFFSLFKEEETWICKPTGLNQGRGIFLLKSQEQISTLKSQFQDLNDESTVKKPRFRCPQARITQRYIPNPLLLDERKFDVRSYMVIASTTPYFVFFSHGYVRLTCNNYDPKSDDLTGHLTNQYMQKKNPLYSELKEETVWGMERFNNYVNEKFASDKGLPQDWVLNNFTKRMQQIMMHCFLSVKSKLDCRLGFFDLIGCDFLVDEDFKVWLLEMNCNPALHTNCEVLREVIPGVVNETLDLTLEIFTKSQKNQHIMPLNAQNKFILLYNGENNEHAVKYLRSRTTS
Description: LC-MS and MS/MS of glycine added to tubulin tails. In kind it is biochemical. Conditions: labelled compound (13C glycine); co-substrate human microtubules monoglycylated by TTLL8; ATP-dependent; room temperature, 20 min.

Assay [1] concerns the target monoglycylated microtubules (α + 1.7G, β + 2.0G) (human) (UniProt P68363). Description: TIRF microscopy microtubule binding assay; binding curve of TTLL10-SNAP(Alexa647) on microtubules immobilised in neutravidin-coated flow chambers; apparent Kd.
Assay [2] deals with monoglycylated/polyglutamylated microtubules (<nG>α ~ 0.1, <nG>β ~ 0.8; <nE>α ~ 18, <nE>β ~ 4) (human) (UniProt P68363). Description: TIRF microscopy microtubule binding assay; 500 nM TTLL10-SNAP(647) perfused over biotinylated taxol-stabilised microtubules immobilised on neutravidin; binding buffer 60mM KCl, 10mM NaCl, 40mM PIPES pH 6.8, 2mM Tris pH 8.0, 1.5mM MgCl2, 1mM ATP; peak line-scan intensities normalised to microtubule length and to unmodified microtubules in the same chamber.

Assay [3] deals with monoglycylated microtubules (<nG>α ~ 1.1, <nG>β ~ 2.5) (human) (UniProt P68363). The description is as above.
Assay [4] concerns the target polyglycylated/polyglutamylated microtubules (<nG>α ~ 0.4, <nG>β ~ 1.9, glutamylated by TTLL6) (human) (UniProt P68363). The description is as above.
In assay [5] the target is monoglycylated microtubules (<nG>α ~ 0.8, <nG>β ~ 1.2) (human) (UniProt P68363). Described as above.

In the case of `NCC(=O)O` [glycine], the “LC-MS and MS/MS of glycine added to tubulin tails” value on TTLL8 is “TTLL8 adds glycines to unmodified microtubules on both α- and β-tubulin”; at TTLL10, “TTLL10 can add glycines to both α- and β-tubulin as long as they were previously monoglycylated”.

B1: Alexa647-labeled TTLL10-SNAP (enzyme)
chain: TSVAKQIHQNLTSSRGAEPQDSSTTSKAGFVCDLELLDESKPEAAAAKLKSPPGEKKHEDPRGQGPFFYIGGGNGAQLVTAYCVSKGWQRIYDSKREDYRLKWCELKSSNTYYVFKAGEQLVYQIPNNKLLTSKIGLLNSLREYERVMQRLNRFPFHNRVLKMSDFFPETFRLDLKEERETFFSLFKEEETWICKPTGLNQGRGIFLLKSQEQISTLKSQFQDLNDESTVKKPRFRCPQARITQRYIPNPLLLDERKFDVRSYMVIASTTPYFVFFSHGYVRLTCNNYDPKSDDLTGHLTNQYMQKKNPLYSELKEETVWGMERFNNYVNEKFASDKGLPQDWVLNNFTKRMQQIMMHCFLSVKSKLDCRLGFFDLIGCDFLVDEDFKVWLLEMNCNPALHTNCEVLREVIPGVVNETLDLTLEIFTKSQKNQHIMPLNAQNKFILLYNGENNEHAVKYLRSRTTS
modifications: SNAP-Surface Alexa Fluor 647 dye conjugated to the SNAP tag
Turning to B1, in assay [1], the Kd came out at 600 nM. This molecule had a fold recruitment against the same monoglycylated microtubules without glutamylation in assay [2] of 1.8 fold. In assay [3], this molecule registered a percent increase in recruitment on addition of more monoglycines (against microtubules with <nG>α ~ 0.8, <nG>β ~ 1.2) of 17%. The molecule also returned a fold binding against the same polyglycylated microtubules without glutamylation in assay [4] of 3.2 fold. Also, the fold recruitment against unmodified microtubules in assay [5] was greater than 6 fold.

For the origin of these results see article doi:10.1101/2024.03.31.587457, “The TTLL10 polyglycylase is stimulated by tubulin glutamylation and inhibited by polyglycylation” (bioRxiv, 2025).
